Data reported in patent publication US20240247080A1, “GLP1/GIP/NPY2 RECEPTOR TRIPLE AGONISTS” (Boehringer Ingelheim International GmbH, priority 2022, published 2024).
Numbering of substitutions follows the chain as printed. Starred links: 1 amine or outer side, 2 acyl side, 3 side chain; linkers in the order of their positions; H or OH if unused. Non-standard residues stand in square brackets, D forms with d. Groups on a side chain read outwards from the residue. No end group written: not given here. *: point of attachment. C20 diacid = O=C(O)CCCCCCCCCCCCCCCCCCC(=O)*; C18 diacid = O=C(O)CCCCCCCCCCCCCCCCC(=O)*; γGlu = O=C(O)[C@H](CCC(=O)[*:2])N[*:1]; εLys = N[C@@H](CCCCN[*:1])C(=O)[*:2]; AEEA = NCCOCCOCC(=O)O; Aib = CC(C)(N)C(=O)O

T1: GIP receptor (human (printed as hGIPR), UniProt P48546 22-466)
T1 sequence (looked up): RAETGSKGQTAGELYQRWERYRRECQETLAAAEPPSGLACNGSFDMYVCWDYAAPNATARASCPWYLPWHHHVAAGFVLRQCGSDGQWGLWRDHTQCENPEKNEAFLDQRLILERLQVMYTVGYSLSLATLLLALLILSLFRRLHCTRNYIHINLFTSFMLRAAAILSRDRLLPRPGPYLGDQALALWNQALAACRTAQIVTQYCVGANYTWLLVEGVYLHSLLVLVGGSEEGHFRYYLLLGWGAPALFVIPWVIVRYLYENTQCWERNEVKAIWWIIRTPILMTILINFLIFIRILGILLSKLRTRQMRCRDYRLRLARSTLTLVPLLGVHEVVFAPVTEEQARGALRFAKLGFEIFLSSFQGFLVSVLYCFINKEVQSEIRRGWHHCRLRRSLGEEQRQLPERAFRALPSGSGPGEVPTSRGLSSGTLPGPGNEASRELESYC

T2: NPY2 receptor (human (printed as hNPY2R), UniProt P49146 1-381)
T2 sequence (looked up): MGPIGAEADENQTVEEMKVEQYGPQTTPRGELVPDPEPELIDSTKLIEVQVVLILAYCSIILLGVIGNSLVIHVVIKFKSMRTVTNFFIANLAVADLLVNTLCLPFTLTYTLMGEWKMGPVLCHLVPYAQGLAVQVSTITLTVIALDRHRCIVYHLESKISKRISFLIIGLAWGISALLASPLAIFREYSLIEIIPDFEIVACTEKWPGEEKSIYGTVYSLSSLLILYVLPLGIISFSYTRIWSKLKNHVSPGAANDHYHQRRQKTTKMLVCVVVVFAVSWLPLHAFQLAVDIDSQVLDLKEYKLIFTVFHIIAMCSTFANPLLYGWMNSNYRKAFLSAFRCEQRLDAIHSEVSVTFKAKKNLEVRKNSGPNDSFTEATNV

B1: Compound 251 (peptide)
peptide: Y[Aib]EGTFTSDYSI[Aib]LEKQAE[Aib]AFVEWLIK([AEEA-AEEA-γGlu-γGlu-γGlu-γGlu-C18 diacid])GGPSEGASLRHYYNWLTRQRY-NH2
modifications: also: TFA salt
B2: Compound 235 (peptide)
peptide: Y[Aib]EGTFTSDYSI[Aib]LEKQAQ[Aib]AFVEWLIK([γGlu-γGlu-γGlu-γGlu-γGlu-γGlu-C20 diacid])GGPSSGASLRHYYNWLTRQRY-NH2
modifications: also: TFA salt
B3: Compound 245 (peptide)
peptide: Y[Aib]EGTFTSDYSI[Aib]LEKQAQ[Aib]AFVQWLIKGGPSEGASLRHYYNWLTRQRY-NH2
modifications: not fully specified (residue 28); also: TFA salt
B4: Compound 239 (peptide)
peptide: Y[Aib]EGTFTSDYSI[Aib]LEKQAQ[Aib]AFVQWLIK([AEEA-AEEA-Glu-Glu-Glu-Glu-C20 diacid])GGPSEGASLRHYYNWLTRQRY-NH2
modifications: also: TFA salt
B5: Compound 242 (peptide)
peptide: Y[Aib]EGTFTSDYSI[Aib]LEKQAQ[Aib]AFVQWLIK([εLys-γGlu-γGlu-γGlu-γGlu-γGlu-C20 diacid])GGPSEGASLRHYYNWLTRQRY-NH2
modifications: also: TFA salt
B6: Compound 232 (peptide)
peptide: YXEGTFTSDYSIXLEKQAQXAFVEWLIKGGPSYGASLRHYYNWLTRQRY
modifications: Aib at 2, 13, 20; K28 side chain carries C20DA-gGlu-gGlu-gGlu-gGlu-gGlu-gGlu-eLys; C-terminal amide
B7: Compound 244 (peptide)
peptide: B6 peptide with Y33T
modifications: Aib at 2, 13, 20; K28 side chain carries C20DA-gGlu-gGlu-gGlu-gGlu-gGlu-gGlu-eLys; C-terminal amide
B8: Compound 241 (peptide)
peptide: B6 peptide with Y33E, A35V
modifications: Aib at 2, 13, 20; K28 side chain carries C20DA-gGlu-gGlu-gGlu-gGlu-gGlu-gGlu-eLys; C-terminal amide
B9: Compound 246 (peptide)
peptide: B6 peptide with E24Q, Y33E
modifications: Aib at 2, 13, 20; K28 side chain carries C18DA-gGlu-gGlu-gGlu-gGlu-gGlu-OEG-OEG; C-terminal amide
B10: Compound 233 (peptide)
peptide: B6 peptide with Y33E, G34P
modifications: Aib at 2, 13, 20; K28 side chain carries C20DA-gGlu-gGlu-gGlu-gGlu-gGlu-gGlu-eLys; C-terminal amide

These binders were tested against GLP-1 receptor (human (printed as hGLP1R), UniProt P43220 24-463) (assay: cell-based or functional assay).

Row | EC50 hGLP1R 0.5% hP (CreLuc) [nM] | EC50 hGLP1R 100% hP (CreLuc) [nM] | Binder
1 | 0.49 | 7.16 | B1
2 | 0.12 | 4.64 | B2
3 | 0.09 | 3.78 | B3
4 | 0.11 | 4.76 | B4
5 | 0.13 | 4.69 | B5
6 | 0.21 | 4.88 | B6
7 | 0.19 | 5.98 | B7
8 | 0.77 | 9.65 | B8
9 | 0.11 | 2.7 | B9
10 | 0.17 | 1.7 | B10

What follows are binders tested against T1, GIP receptor (assay: cell-based or functional assay).

Row | EC50 hGIPR 0.5% hP (CreLuc) [nM] | EC50 hGIPR 100% hP (CreLuc) [nM] | Binder
11 | 0.16 | 0.98 | B1
12 | 0.34 | 2.81 | B2
13 | 0.37 | 1.74 | B3
14 | 0.35 | 1.55 | B4
15 | 0.32 | 1.72 | B5
16 | 0.19 | 1.64 | B6
17 | 0.32 | 2.32 | B7
18 | 0.69 | 4.36 | B8
19 | 0.16 | 0.95 | B9
20 | 0.08 | 0.75 | B10

Each binder was assayed against T2, NPY2 receptor (assay: cell-based or functional assay).

Row | EC50 hNPY2R 0.5% hP (CreLuc) [nM] | EC50 hNPY2R 100% hP (CreLuc) [nM] | Binder
21 | 20.6 | 48.7 | B1
22 | 13.9 | 77.7 | B2
23 | 24.5 | 66.9 | B3
24 | 13.6 | 57 | B4
25 | 7.54 | 28.8 | B5
26 | 15.3 | 36.8 | B6
27 | 13.5 | 58.3 | B7
28 | 16.6 | 34.1 | B8
29 | 12.8 | 28.2 | B9
30 | 12.6 | 27.1 | B10
